Results on four molecules are retold here after patent US20250270566A1, “DUAL-SPECIFICITY RNA ATPAMERS FOR REGULATING O-GLCNACYLATION” (University of Georgia Research Foundation, Inc., published 2025).

One data set addresses β-catenin (UniProt P35222 P35222:1-781). Put plainly: SPR; intracellular buffer (20 mM HEPES, 110 mM KCl, 10 mM NaCl, 0.4 mM MgCl2, 5 mM KH2PO4, pH 7.2), 25 C. As to conditions: tags: His tag (Ni-NTA purified, pET28a-β-catenin, E. coli). The procedure:
Total PLA puncta was counted and normalized to the number of nuclei in each view. Student's t-test was performed. N=8. […] Nucleus and cytoplasm of cells stably expressing 3JB8F+12 was isolated, and RNA in each fraction was quantified by RT-qPCR. RNA abundances were normalized to that of 3JB8F+12 in whole cell lysate (purple bar in upper panel). NEAT1 is a nuclear RNA control, and GAPDH is a cytoplasmic RNA control. Cyt.—Cytoplasm. Nuc.—Nucleus. W.C.—Whole Cell. N=4. T1·bc339—Individual T1 and bc339 aptamers (control). NL8F50/70/100—DS aptamers (T1-linker-bc339) with flexible linkers of 50/70/100 nt. 3JB8F—DS aptamers (T1-linker-bc339) with folded linkers. +4/+12, serial additions (bp) into the folded linker. Quantitated data are normalized to the control group (T1·bc339). Aptamers were expressed from plasmids, and One-way ANOVA test was performed unless indicated. Data are represented as mean±SD. ns, p≥0.05; *, p<0.05; **, p<0.01; ***, p<0.001; ****, p<0.0001.
For SPR, Multi Cycle Kinetics was performed according to (Chang, A. L., et al. Methods Enzymol 2014 549:451-466) on a Biacore T100 (GE Healthcare/Cytiva) instrument at 25° C. […] Data was analyzed using the Biacore Evaluation Software (GE Healthcare/Cytiva), where the overlaid sensorgrams were fitted into a 1:1 binding model.
(In general: SPR reads the build-up and loss of mass on a sensor chip optically.)

A further data set has as its target T1, EP300 (UniProt Q09472 2-2414).
T1 construct: Endogenous protein in HEK293T cells
Put plainly: PLA with antibodies to β-catenin and EP300, confocal images of HEK293T cells, -Wnt, T1 • bc339 or 3JB8F+12. The procedure: FIGS. 13A to 13P show O-GlcNAc regulates β-catenin's interactions with other epigenetic modifiers and β-TrCP. FIGS. 13A to 13F contain confocal images of PLA on HEK293T cells. Cells were transfected with plasmids encoding the control aptamers (T1·bc339) or a DS aptamer (3JB8F+12), and stimulated with regular (−Wnt) or Wnt3A-conditioned (+Wnt) medium. PLA was performed with antibodies targeting β-catenin and EP300, KAT5, or β-TrCP. FIGS. 13G and 13H contain confocal images of the negative control experiments of PLA. Cells were treated with regular (−Wnt) or Wnt3A-conditioned (+Wnt) medium. PLA was performed with the antibody targeting β-catenin and normal rabbit IgG. FIGS. 13I to 13P show quantification of FIGS. 13A to 13H. Nuclear or total PLA puncta were counted and normalized to the number of nuclei in each view. N=10 (I to N) or N=5 (O to P). Student's t-test was performed. Data are represented as mean±SD. **, p<0.01; ***, p<0.001. T1·bc339—Individual T1 and bc339 aptamers (control). 3JB8F+12—A DS aptamer (T1-linker-bc339) with a folded linker.

The target of a further data set is T2, KAT2A (GCN5) (UniProt Q92830 2-837).
T2 construct: Endogenous protein in HEK293T cells; also called KAT2A/GCN5L2
Put plainly: PLA with antibodies to β-catenin and KAT2A, confocal images of HEK293T cells, -Wnt, T1 • bc339 or 3JB8F+12. As to the method:
FIGS. 12A to 12P show O-GlcNAc regulates β-catenin's interactions with KAT2A. FIGS. 12A to 12H contain confocal images of Proximity Ligation Assay (PLA) on HEK293T cells. Cells were transfected with plasmids encoding the control aptamers (T1·bc339) or a DS aptamer (3JB8F+12 or 3JB8R+12) and stimulated with regular (−Wnt) or Wnt3A-conditioned (+Wnt) medium. PLA was performed with antibodies targeting […] and KAT2A or H3K9ac. In FIGS. 12C and 12D, cells were treated with 50 μM Ac5S for 20 hr. FIGS. 12I to 12P show quantification of FIGS. 12A to 12H. PLA puncta in nucleus were counted and normalized to the number of nuclei in each view. Student's t-test was performed. Data are represented as mean±SD. ns, p≥0.05; ***, p<0.001; ****, p<0.0001. N=10. T1·bc339—Individual T1 and bc339 aptamers (control). 3JB8F+12/R+12—DS aptamers (T1-linker-bc339) with folded linkers.

For data set [1], the target named is T3, ncOGT full-length (OGT-FL, nucleocytoplasmic O-GlcNAc transferase) (UniProt O15294 O15294:1-1046).
T3 sequence: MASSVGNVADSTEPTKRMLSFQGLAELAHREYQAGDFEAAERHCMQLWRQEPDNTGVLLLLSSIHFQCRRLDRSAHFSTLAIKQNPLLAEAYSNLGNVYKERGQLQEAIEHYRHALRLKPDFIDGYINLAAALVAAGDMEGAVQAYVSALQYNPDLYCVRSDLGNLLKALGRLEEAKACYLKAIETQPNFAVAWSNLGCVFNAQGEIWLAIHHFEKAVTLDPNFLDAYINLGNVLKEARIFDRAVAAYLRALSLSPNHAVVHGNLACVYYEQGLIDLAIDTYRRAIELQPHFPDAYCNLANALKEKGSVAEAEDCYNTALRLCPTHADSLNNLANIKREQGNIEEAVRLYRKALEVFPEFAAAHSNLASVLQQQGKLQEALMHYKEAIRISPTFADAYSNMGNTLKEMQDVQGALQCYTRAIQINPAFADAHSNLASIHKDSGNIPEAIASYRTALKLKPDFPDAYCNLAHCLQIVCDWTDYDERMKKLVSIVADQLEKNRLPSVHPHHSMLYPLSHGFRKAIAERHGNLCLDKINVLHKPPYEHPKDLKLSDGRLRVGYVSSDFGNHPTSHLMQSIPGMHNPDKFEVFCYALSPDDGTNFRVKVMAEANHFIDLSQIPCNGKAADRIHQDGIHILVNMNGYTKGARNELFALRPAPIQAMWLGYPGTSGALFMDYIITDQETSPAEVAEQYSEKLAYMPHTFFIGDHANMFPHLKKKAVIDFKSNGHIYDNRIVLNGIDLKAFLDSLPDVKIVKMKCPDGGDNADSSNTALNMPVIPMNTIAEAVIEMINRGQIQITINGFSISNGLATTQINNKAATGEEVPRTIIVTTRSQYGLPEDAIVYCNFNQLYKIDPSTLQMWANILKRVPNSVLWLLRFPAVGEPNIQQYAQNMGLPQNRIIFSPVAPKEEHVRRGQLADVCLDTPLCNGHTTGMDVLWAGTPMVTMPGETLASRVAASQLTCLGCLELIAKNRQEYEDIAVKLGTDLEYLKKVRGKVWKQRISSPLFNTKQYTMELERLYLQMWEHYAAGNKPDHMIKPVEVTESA
Put plainly: SPR; ABB (20 mM Tris-HCl, 150 mM NaCl, 5 mM MgCl2, 0.05% Tween-20, pH 7.5), 25 C, 1:1 model. The note with it: tags: His tag (Ni-NTA purified, pET24a-ncOGT-FL, E. coli). The procedure: T1 was included in the indicated reactions (orange) from 2 μM to 7.8 nM in 2× serial dilution. Data were normalized to the positive control reaction (red). One-way ANOVA test was performed. […] OGT was immunoprecipitated from lysate of T1-expressing cells, using buffers with Mg²⁺ (left) or without Mg²⁺ (right). Then the OGT-bound T1 was quantified by RT-qPCR. Data were normalized to the IgG groups. One-way ANOVA test was performed. RT—Reverse Transcriptase. N=3. […] N=3. […] Cells stably expressing T1 were treated with ActD for the indicated periods. Abundance of T1 was quantified by RT-qPCR (left) and normalized to that of 18S rRNA (right) and initial timepoint (T=0). Data were fitted to a one-phase decay model (curve). N=3. Data are represented as mean±SD. ns, p≥0.05; ****, p<0.0001.
For SPR, Multi Cycle Kinetics was performed according to (Chang, A. L., et al. Methods Enzymol 2014 549:451-466) on a Biacore T100 (GE Healthcare/Cytiva) instrument at 25° C. In assay preparation, an amine-modified T24 DNA linker (NH2-T24) was immobilized to approximately 100 RU in both reference and test flow cells on a sensorchip PEG (GE Healthcare/Cytiva 29239810), using the Amine Coupling Kit (GE Healthcare/Cytiva BR100050). […] Data was analyzed using the Biacore Evaluation Software (GE Healthcare/Cytiva), where the overlaid sensorgrams were fitted into a 1:1 binding model.

For data set [2], the target named is T3, ncOGT full-length (OGT-FL, …). The experiment in a line: FP filter; radiolabeled dot blot (nitrocellulose filter), ABB with 5 mM MgCl2, 37 C, yeast tRNA and BSA competitors. The note with it: tags: His tag (Ni-NTA purified, pET24a-ncOGT-FL, E. coli); label: 5'-32P (dot blot). As to the method:
Radiolabeled RNA was diluted in ABB, denatured at 65° C. for 5 min and re-folded at room temperature for 5 min. Then 100 nM of RNA was incubated with multiple concentrations (see Figure legends) of purified ncOGT at 37° C. for 30 min. The volume of each assay was 50 μL. 1 μM yeast tRNA (Invitrogen AM7119) and 50 μg/mL Bovine Serum Albumin (BSA, NEB B9001S) were included as non-specific competitors. After incubation, the reactions were filtered sequentially through a nitrocellulose membrane (Amersham 10600042) and a Nylon membrane (Invitrogen AM10102), on a Bio-Dot Microfiltration Apparatus (Bio-Rad 170-6545). Membranes were washed with 100 μL ABB to remove unbound RNA. Washed membranes were air-dried and exposed to a film (Amersham 28906836) for 2 hr. The film was developed and scanned, and the image was analyzed with Fiji (Schindelin, J., et al. Nat Methods 2012 9:676-682). Quantified data was fitted into a Michaelis-Menten model using GraphPad Prism.

Broadly, the Kd is a measure of binding affinity in units of concentration.

T1 sequence (Q09472 2-2414 limits assumed): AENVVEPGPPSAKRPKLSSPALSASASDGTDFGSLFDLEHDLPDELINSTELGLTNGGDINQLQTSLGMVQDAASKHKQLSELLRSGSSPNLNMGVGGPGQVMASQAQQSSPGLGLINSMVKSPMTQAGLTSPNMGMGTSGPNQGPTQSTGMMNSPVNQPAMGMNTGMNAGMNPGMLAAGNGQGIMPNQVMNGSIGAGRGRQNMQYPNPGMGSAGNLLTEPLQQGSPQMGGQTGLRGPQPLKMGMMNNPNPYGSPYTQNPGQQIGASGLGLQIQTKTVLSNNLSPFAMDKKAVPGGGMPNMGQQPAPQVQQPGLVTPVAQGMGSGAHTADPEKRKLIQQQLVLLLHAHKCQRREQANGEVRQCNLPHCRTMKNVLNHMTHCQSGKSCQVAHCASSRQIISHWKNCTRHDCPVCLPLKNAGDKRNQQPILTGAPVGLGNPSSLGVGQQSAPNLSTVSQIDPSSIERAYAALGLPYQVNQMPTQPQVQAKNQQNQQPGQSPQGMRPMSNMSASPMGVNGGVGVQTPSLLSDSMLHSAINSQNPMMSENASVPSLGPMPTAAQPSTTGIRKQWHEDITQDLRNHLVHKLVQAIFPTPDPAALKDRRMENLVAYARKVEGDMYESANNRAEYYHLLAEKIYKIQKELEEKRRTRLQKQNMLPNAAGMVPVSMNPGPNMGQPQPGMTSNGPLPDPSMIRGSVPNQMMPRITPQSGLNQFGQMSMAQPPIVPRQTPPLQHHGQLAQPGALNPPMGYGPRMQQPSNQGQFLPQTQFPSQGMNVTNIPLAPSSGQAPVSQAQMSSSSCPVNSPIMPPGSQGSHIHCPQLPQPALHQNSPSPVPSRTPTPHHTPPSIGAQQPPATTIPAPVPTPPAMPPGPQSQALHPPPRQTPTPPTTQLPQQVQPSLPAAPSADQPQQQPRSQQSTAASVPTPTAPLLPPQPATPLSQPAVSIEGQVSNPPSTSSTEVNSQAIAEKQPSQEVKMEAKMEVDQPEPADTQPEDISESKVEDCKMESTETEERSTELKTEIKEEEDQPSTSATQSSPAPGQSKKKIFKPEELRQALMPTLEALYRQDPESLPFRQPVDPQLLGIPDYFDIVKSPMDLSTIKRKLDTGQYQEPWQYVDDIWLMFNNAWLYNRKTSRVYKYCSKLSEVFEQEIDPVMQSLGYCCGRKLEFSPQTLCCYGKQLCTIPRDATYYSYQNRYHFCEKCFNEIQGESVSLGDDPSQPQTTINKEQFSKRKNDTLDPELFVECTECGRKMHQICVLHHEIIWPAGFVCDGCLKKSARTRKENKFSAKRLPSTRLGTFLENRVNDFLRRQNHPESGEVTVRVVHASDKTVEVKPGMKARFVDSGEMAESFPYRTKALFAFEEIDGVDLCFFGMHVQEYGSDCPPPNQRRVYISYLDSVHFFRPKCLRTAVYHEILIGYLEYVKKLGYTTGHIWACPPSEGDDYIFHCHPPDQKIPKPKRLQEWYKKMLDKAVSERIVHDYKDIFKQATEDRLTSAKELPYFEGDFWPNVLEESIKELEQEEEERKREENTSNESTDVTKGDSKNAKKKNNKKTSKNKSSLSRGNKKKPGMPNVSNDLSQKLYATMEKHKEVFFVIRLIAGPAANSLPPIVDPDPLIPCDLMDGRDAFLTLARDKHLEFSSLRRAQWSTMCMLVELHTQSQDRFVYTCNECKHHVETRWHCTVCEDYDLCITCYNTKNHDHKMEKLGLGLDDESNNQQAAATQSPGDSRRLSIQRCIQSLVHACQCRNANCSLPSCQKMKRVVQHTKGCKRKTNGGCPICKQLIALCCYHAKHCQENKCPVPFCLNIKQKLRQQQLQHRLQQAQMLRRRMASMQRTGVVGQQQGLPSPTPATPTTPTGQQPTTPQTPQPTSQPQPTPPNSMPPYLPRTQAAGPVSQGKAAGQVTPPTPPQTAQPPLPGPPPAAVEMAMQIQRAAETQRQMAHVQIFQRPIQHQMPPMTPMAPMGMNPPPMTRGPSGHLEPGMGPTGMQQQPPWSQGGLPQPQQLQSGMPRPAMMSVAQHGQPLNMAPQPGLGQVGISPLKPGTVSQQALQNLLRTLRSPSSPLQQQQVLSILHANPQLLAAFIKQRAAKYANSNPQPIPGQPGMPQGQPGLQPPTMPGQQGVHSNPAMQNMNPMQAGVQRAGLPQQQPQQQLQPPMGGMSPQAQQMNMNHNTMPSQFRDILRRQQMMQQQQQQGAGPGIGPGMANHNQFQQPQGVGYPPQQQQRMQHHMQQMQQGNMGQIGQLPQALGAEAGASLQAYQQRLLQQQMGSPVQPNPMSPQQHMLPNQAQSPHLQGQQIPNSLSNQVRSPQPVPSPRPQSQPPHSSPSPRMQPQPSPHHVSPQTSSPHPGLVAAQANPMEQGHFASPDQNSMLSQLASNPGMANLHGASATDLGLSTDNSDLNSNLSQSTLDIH
T2 sequence (Q92830 2-837 limits assumed): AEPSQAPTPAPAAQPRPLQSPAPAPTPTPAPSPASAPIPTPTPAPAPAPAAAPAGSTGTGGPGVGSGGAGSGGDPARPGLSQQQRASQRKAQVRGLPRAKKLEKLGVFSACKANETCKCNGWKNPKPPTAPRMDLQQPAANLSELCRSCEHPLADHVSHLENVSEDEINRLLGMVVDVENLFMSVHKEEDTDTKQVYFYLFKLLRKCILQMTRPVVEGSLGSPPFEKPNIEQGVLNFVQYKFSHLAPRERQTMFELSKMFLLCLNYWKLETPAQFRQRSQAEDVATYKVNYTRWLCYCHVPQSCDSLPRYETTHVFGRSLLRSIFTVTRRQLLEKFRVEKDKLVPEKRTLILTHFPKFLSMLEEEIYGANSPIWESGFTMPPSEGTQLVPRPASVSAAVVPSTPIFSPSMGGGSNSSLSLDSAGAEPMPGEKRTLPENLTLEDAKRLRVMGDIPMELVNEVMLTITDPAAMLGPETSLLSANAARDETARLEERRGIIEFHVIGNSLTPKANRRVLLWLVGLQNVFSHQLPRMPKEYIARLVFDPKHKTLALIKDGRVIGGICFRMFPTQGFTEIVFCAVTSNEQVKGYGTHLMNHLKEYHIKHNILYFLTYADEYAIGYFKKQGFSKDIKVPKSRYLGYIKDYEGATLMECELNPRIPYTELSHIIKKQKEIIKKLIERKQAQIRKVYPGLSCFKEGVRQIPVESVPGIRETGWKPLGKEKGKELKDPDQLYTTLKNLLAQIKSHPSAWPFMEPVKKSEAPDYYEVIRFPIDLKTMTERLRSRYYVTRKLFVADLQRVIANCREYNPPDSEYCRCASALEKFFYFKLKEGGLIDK

B1: bc339 with 3' A28 tail (ssRNA)
RNA: AGCUUCUGGGCGGCGAUGAGAUGACGUGUGCGGUGGUCGAGAGGUACCUUGGGUGAGGGAAGGGAAGGGAGGUUGACCACUGCGUGACUGCCCAGAAGCU
With B1, the affinity with β-catenin, expressed as Kd, was 16 nM. This counts as double-digit nanomolar.

B2: β-catenin (endogenous, in HEK293T cells) (other, UniProt P35222 2-781, looked up)
chain: ATQADLMELDMAMEPDRKAAVSHWQQQSYLDSGIHSGATTTAPSLSGKGNPEEEDVDTSQVLYEWEQGFSQSFTQEQVADIDGQYAMTRAQRVRAAMFPETLDEGMQIPSTQFDAAHPTNVQRLAEPSQMLKHAVVNLINYQDDAELATRAIPELTKLLNDEDQVVVNKAAVMVHQLSKKEASRHAIMRSPQMVSAIVRTMQNTNDVETARCTAGTLHNLSHHREGLLAIFKSGGIPALVKMLGSPVDSVLFYAITTLHNLLLHQEGAKMAVRLAGGLQKMVALLNKTNVKFLAITTDCLQILAYGNQESKLIILASGGPQALVNIMRTYTYEKLLWTTSRVLKVLSVCSSNKPAIVEAGGMQALGLHLTDPSQRLVQNCLWTLRNLSDAATKQEGMEGLLGTLVQLLGSDDINVVTCAAGILSNLTCNNYKNKMMVCQVGGIEALVRTVLRAGDREDITEPAICALRHLTSRHQEAEMAQNAVRLHYGLPVVVKLLHPPSHWPLIKATVGLIRNLALCPANHAPLREQGAIPRLVQLLVRAHQDTQRRTSMGGTQQQFVEGVRMEEIVEGCTGALHILARDVHNRIVIRGLNTIPLFVQLLYSPIENIQRVAAGVLCELAQDKEAAEAIEAEGATAPLTELLHSRNEGVATYAAAVLFRMSEDKPQDYKKRLSVELTSSLFRTEPMAWNETADLGLDIGAQGEPLGYRQDDPSYRSFHSGGYGQDALGMDPMMEHEMGGHHPGADYPVDGLPDLGHAQDLMDGLPPGDSNQLAWFDTDL
modifications: O-GlcNAc at varying levels (raised by the DS aptamer 3JB8F+12); sites not fully mapped
notes: Endogenous protein detected in fixed cells (PLA) or cell lysate (Co-IP) with an anti-β-catenin antibody; HEK293T is a human cell line; also called endogenous β-catenin
Consider B2, for which the binding result in the data set with EP300 and in the data set with KAT2A (GCN5) was “binds” each time.

B3: T1 with 3' A28 tail (ssRNA)
RNA: GGGAGAAUCACUUACGGAUCCUCGUUAAGUGGCUCUCAGUCGCCCGUAACUCCGAUGCCGAUGCAGCGGCGACAACUGCACCCAAGGCUCGGAAGCUU
B3 showed a Kd in data set [1] of 60.5 nM.

B4: T1 (ssRNA)
RNA: B3 RNA
Molecule B4 registered a Kd in data set [2] of around 60 nM.
